Measurements published in doi:10.1101/2025.11.11.687775.

Molecular target: microtubules of primary rat hippocampal neurons (rat (endogenous in primary hippocampal neurons)) (UniProt P68370)

Substance: GFP-tagged Tau lacking the microtubule-binding domain (delMTBD-Tau; PRR2-WT, MTBD deleted) (from UniProt P10636-6 1-383) (natural protein)
- FRAP recovery plateau in rat neurons: 0.873
